Residues, ends and D or L forms follow the SMILES beside them. *: point of attachment. Cbz = O=C(OCc1ccccc1)*; CH2F = FC*

The test system of one test is caspase-1. In words: IL-1β secretion assay in COS-7L cells (ELISA for mouse IL-1β). The test is classed as cell-based. The conditions noted are these: for IL-1β production (caspase-1 activation): co-expression with caspase-1 and CARD-5 at low protein levels, FIG. 14B. As to the method: Experiments were next carried out using an IL-1β secretion assay to determine whether CARD-5 and PYRIN-8 induce activation of caspase-1. Active caspase-1 cleaves pro-IL-1β, resulting in the secretion of bioactive IL-1β from cells. In the IL-1β secretion assays, COS-7L cells (GIBCO) were co-transfected in 12-well (22-mm) plates using LipofectAMINE […] reagent (Invitrogen) with plasmids encoding mouse pro-IL-1β and indicated expression plasmids (total DNA=1.04 μg). Supernatants were collected 24 hours after transfection and subjected to ELISA for mouse IL-1β according to the manufacturer's protocol (R&D Systems).
The caspase-1 inhibitor Z-WEHD-FMK was added to cells following transfection at a final concentration of 100 μM.

In a further test the target is T1, CARD-5 (Homo sapiens, UniProt Q9ULZ3).
T1 construct: expressed in transfected cells; host or cells: 293T
Description: Cellular co-localization (immunostaining) in 293T embryonic kidney cells. The test is classed as cell-based. The conditions noted are these: 293T cells; FLAG-tagged PYRIN-8 construct co-expressed with HA-tagged CARD-5. As to the method:
Cellular co-localization studies were carried out to determine whether PYRIN-8 interacts with CARD-5 (also known as ASC) when the two proteins were overexpressed in 293T embryonic kidney cells. Plasmids expressing either full-length PYRIN-8 (PYRIN-8FL, residues 1-1061 of SEQ ID NO:18) or a PYRIN-8 truncation mutant lacking the PYRIN domain (PYRIN-8ΔPYRIN, residues 89-1061 of SEQ ID NO:18) with a C-terminal FLAG epitope were constructed using pCI (Promega). FLAG-tagged PYRIN-8 and HA-tagged CARD-5 were expressed in cells and detected using a mixture of anti-HA and anti-FLAG antibodies.
In immunostaining assays to detect cellular localization, 293T cells were transfected in poly-D-lysine-coated glass chamber slides (BioCoat, Becton-Dickinson Labware) with plasmids expressing HA-tagged CARD-5 and either FLAG-tagged PYRIN-8 or PYRIN-8ΔPYRIN using SuperFect transfection reagent (Qiagen). Cells were fixed 24 hours after transfection in 4% paraformaldehyde, permeabilized and blocked in a buffer containing 0.3% Triton X-100, and incubated with the following primary and secondary antibodies: rabbit anti-HA polyclonal Y-11 (Santa Cruz Biotechnology), mouse anti-FLAG monoclonal antibody M2 (Sigma), Alexa-350 goat anti-rabbit IgG (Molecular Probes), and Alexa-598 goat anti-mouse IgG (Molecular Probes). […]

T1 sequence (Q9ULZ3 whole entry): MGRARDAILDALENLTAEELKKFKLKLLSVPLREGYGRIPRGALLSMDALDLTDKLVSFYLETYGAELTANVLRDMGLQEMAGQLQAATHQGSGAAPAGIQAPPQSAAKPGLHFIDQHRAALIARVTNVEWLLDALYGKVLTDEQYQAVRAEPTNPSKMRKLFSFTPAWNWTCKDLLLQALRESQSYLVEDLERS

For the molecule `COC(=O)CC[C@H](NC(=O)[C@H](Cc1c[nH]c2ccccc12)NC(=O)OCc1ccccc1)C(=O)N[C@@H](Cc1cnc[nH]1)C(=O)N[C@@H](CC(=O)OC)C(=O)CF` [Z-WEHD, Z-WEHD-FMK, reference compound] (Cbz-WE(OMe)HD(OMe)-CH2F), the “effect on IL-1β secretion induced by PYRIN-8 and CARD-5” value with caspase-1 (inhibitor added following transfection at a final concentration of 100 μM, FIG. 14C) was “blocked the ability of PYRIN-8 and CARD-5 to induce the secretion of IL-1β”.

B1: PYRIN-8: full-length human PYRIN-8 protein, residues 1-1061 of SEQ ID NO:18, expressed from plasmid (protein, listed as Homo sapiens)
chain: MLRTAGRDGLCRLSTYLEELEAVELKKFKLYLGTATELGEGKIPWGSMEKAGPLEMAQLLITHFGPEEAWRLALSTFERINRKDLWERGQREDLVRDTPPGGPSSLGNQSTCLLEVSLVTPRKDPQETYRDYVRRKFRLMEDRNARLGECVNLSHRYTRLLLVKEHSNPMQVQQQLLDTGRGHARTVGHQASPIKIETLFEPDEERPEPPRTVVMQGAAGIGKSMLAHKVMLDWADGKLFQGRFDYLFYINCREMNQSATECSMQDLIFSCWPEPSAPLQELIRVPERLLFIIDGFDELKPSFHDPQGPWCLCWEEKRPTELLLNSLIRKKLLPELSLLITTRPTALEKLHRLLEHPRHVEILGFSEAERKEYFYKYFHNAEQAGQVFNYVRDNEPLFTMCFVPLVCWVVCTCLQQQLEGGGLLRQTSRTTTAVYMLYLLSLMQPKPGAPRLQPPPNQRGLCSLAADGLWNQKILFEEQDLRKHGLDGEDVSAFLNMNIFQKDINCERYYSFIHLSFQEFFAAMYYILDEGEGGAGPDQDVTRLLTEYAFSERSFLALTSRFLFGLLNEETRSHLEKSLCWKVSPHIKMDLLQWIQSKAQSDGSTLQQGSLEFFSCLYEIQEEEFIQQALSHFQVIVVSNIASKMEHMVSSFCLKRCRSAQVLHLYGATYSADGEDRARCSAGAHTLLVQLPERTVLLDAYSEHLAAALCTNPNLIELSLYRNALGSRGVKLLCQGLRHPNCKLQNLRLKRCRISSSACEDLSAALIANKNLTRMDLSGNGVGFPGMMLLCEGLRHPQCRLQMIQLRKCQLESGACQEMASVLGTNPHLVELDLTGNALEDLGLRLLCQGLRHPVCRLRTLWLKICRLTAAACDELASTLSVNQSLRELDLSLNELGDLGVLLLCEGLRHPTCKLQTLRLGICRLGSAACEGLSVVLQANHNLRELDLSFNDLGDWGLWLLAEGLQHPACRLQKLWLDSCGLTAKACENLYFTLGINQTLTDLYLTNNALGDTGVRLLCKRLSHPGCKLRVLWLFGMDLNKMTHSRLAALRVTKPYLDIGC
B1: in the test with CARD-5, the “co-localization with CARD-5 punctate structures” value is given as “co-localize with CARD-5”. Also, the “IL-1β production (caspase-1 activation)” value in the test with caspase-1 was “increase in IL-1β production”.

B2: PYRIN-8ΔPYRIN: PYRIN-8 truncation mutant lacking the PYRIN domain, residues 89-1061 of SEQ ID NO:18 (protein, listed as Homo sapiens)
chain: GQREDLVRDTPPGGPSSLGNQSTCLLEVSLVTPRKDPQETYRDYVRRKFRLMEDRNARLGECVNLSHRYTRLLLVKEHSNPMQVQQQLLDTGRGHARTVGHQASPIKIETLFEPDEERPEPPRTVVMQGAAGIGKSMLAHKVMLDWADGKLFQGRFDYLFYINCREMNQSATECSMQDLIFSCWPEPSAPLQELIRVPERLLFIIDGFDELKPSFHDPQGPWCLCWEEKRPTELLLNSLIRKKLLPELSLLITTRPTALEKLHRLLEHPRHVEILGFSEAERKEYFYKYFHNAEQAGQVFNYVRDNEPLFTMCFVPLVCWVVCTCLQQQLEGGGLLRQTSRTTTAVYMLYLLSLMQPKPGAPRLQPPPNQRGLCSLAADGLWNQKILFEEQDLRKHGLDGEDVSAFLNMNIFQKDINCERYYSFIHLSFQEFFAAMYYILDEGEGGAGPDQDVTRLLTEYAFSERSFLALTSRFLFGLLNEETRSHLEKSLCWKVSPHIKMDLLQWIQSKAQSDGSTLQQGSLEFFSCLYEIQEEEFIQQALSHFQVIVVSNIASKMEHMVSSFCLKRCRSAQVLHLYGATYSADGEDRARCSAGAHTLLVQLPERTVLLDAYSEHLAAALCTNPNLIELSLYRNALGSRGVKLLCQGLRHPNCKLQNLRLKRCRISSSACEDLSAALIANKNLTRMDLSGNGVGFPGMMLLCEGLRHPQCRLQMIQLRKCQLESGACQEMASVLGTNPHLVELDLTGNALEDLGLRLLCQGLRHPVCRLRTLWLKICRLTAAACDELASTLSVNQSLRELDLSLNELGDLGVLLLCEGLRHPTCKLQTLRLGICRLGSAACEGLSVVLQANHNLRELDLSFNDLGDWGLWLLAEGLQHPACRLQKLWLDSCGLTAKACENLYFTLGINQTLTDLYLTNNALGDTGVRLLCKRLSHPGCKLRVLWLFGMDLNKMTHSRLAALRVTKPYLDIGC
Regarding B2, the “co-localization with CARD-5 punctate structures” value with CARD-5 is on record as “failed to associate with the CARD-5 punctate structures”. Also, in the test with caspase-1, the “IL-1β production (caspase-1 activation)” value is reported as “eliminated the synergistic production of IL-1β”.

Source of the values: patent US7648963B2, “Molecules of the PYRIN/NBS/LRR protein family and uses thereof” (Millennium Pharmaceuticals, Inc., priority 2001, dated 2010).
